Three molecules from article PMC6597557, “A split fluorescent reporter with rapid and reversible complementation” (Nature Communications, 2019) can be followed below.

What all share (settings): both partners purified
Assay [1] has as its target T1, NFAST (fragment 1–114 of FAST).
T1 construct: N-terminal fragment (residues 1-114) of the engineered fluorogenic reporter FAST, split between Ser 114 and Gly 115; numbers count on: FAST; Cloned in pET28a with NheI and XhoI; Surmise: the His tag is the N-terminal one of the vector; no cleavage is told; also called recombinantly purified NFAST; source: E. coli Rosetta (DE3) pLysS, purified (Ni-NTA, PD-10 desalting)
T1 chain: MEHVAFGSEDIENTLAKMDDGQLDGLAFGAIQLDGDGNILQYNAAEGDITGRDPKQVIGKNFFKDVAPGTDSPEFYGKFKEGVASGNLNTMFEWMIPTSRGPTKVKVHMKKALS
The assay is described as follows: other fluorescence titration; synthetic CFASTn peptides (n = 8–11) and recombinant purified NFAST in the presence of fluorogen (10 µM HMBR; also HBR-3,5DOM); Spark 10M plate reader; one-site-specific binding fit; apparent.

The target in assay [2] is T2, CFAST9.
T2 construct: CFAST11 without its last two C-terminal residues; source: synthetic peptide, bought: Clinisciences, 98% purity
T2 peptide: Ac-GDSYWVFVK-NH2
The assay is described as follows: other fluorescence titration; NFAST titrated onto 100 nM CFASTn in the presence of 10 µM HBR-3,5DOM; pH 7.4 phosphate buffered saline, 25 °C; excitation 520 nm, emission 600 nm; plate reader; one-site-specific binding fit; apparent.

Assay [3] concerns the target T3, CFAST10.
T3 construct: CFAST11 without its last C-terminal residue; source: synthetic peptide, bought: Clinisciences, 98% purity
T3 peptide: Ac-GDSYWVFVKR-NH2
The assay is described as above.

The target in assay [4] is T4, CFAST11 (fragment 115-125 of FAST).
T4 construct: C-terminal fragment 115-125 of the engineered protein FAST; source: synthetic peptide, bought: Clinisciences, 98% purity
T4 peptide: Ac-GDSYWVFVKRV-NH2
The assay is described as above.

For assay [5], the target named is T5, CFAST8.
T5 construct: CFAST11 without its last three C-terminal residues; source: synthetic peptide, bought: Clinisciences, 98% purity
T5 peptide: Ac-GDSYWVFV-NH2
As to the kind of experiment: other fluorescence titration; NFAST titrated onto 100 nM CFASTn in the presence of 10 µM HMBR; pH 7.4 phosphate buffered saline, 25 °C; excitation 480 nm, emission 540 nm; plate reader; one-site-specific binding fit; apparent.

Assay [6] addresses T2, CFAST9. The assay is described as above.
For assay [7], the target named is T3, CFAST10. Described as above.
Assay [8] has as its target T4, CFAST11 (fragment 115-125 of FAST). Described as above.

B1: CFAST11 (fragment 115–125 of FAST), synthetic peptide (peptide)
peptide: Ac-GDSYWVFVKRV-NH2
notes: C-terminal fragment (residues 115-125) of the engineered reporter FAST; numbers count on: FAST; source: synthetic peptide, bought: Clinisciences (98% purity)
Consider B1, for which, in assay [1], the binding result is “binds”.

B2: CFAST10, synthetic peptide (peptide)
peptide: Ac-GDSYWVFVKR-NH2
notes: CFAST11 without its last C-terminal residue; numbers count on: FAST; source: synthetic peptide, bought: Clinisciences (98% purity)
As for B2, in assay [1], the binding result was “binds”.

B3: NFAST (fragment 1-114 of FAST, Fluorescence-Activating and absorption-Shifting Tag) (domain or fragment)
chain: MEHVAFGSEDIENTLAKMDDGQLDGLAFGAIQLDGDGNILQYNAAEGDITGRDPKQVIGKNFFKDVAPGTDSPEFYGKFKEGVASGNLNTMFEWMIPTSRGPTKVKVHMKKALS
notes: Cloned into pET28a by NheI and XhoI; also called Histag-NFAST; pAG209; source: E. coli Rosetta (DE3) pLysS, purified (Ni-NTA, PD-10 desalting into PBS)
Turning to B3, the Kd in assay [2] worked out at 25 ± 1 µM; in assay [3] it was 6.2 ± 0.5 µM; in assay [4], 1.4 ± 0.2 µM; in assay [5] it was 21 ± 4 µM; in assay [6] it was 5.7 ± 0.6 µM; in assay [7], 0.95 ± 0.08 µM. In assay [8], the Kd is 0.21 ± 0.05 µM.
